Measured values reported in article PMC7954794, “Protein context shapes the specificity of SH3 domain-mediated interactions in vivo” (Nature Communications, 2021).

Tested on: growth of yeast strains under 51 stress conditions
Assay: Growth assays in 51 stress conditions (Fig. 1E-F, S2D, S5B)
Format: cell-based, Saccharomyces cerevisiae
Design: key to Growth (Fig. S2D) / growth of ABP1 SH3-swapped strains in stress condition: log2 colony size, average of median per strain (growth score)
Conditions: FigS2D
In short: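 Yeast WT, SH3-deleted, KO, SH3-swapped and SH3-shuffled strains pinned in 1536 format, 12 replicates each; pregrown on YPD 2 days at 30 °C, then replicated onto 51 media at 37 °C and imaged every 2 h. Growth score = mean of per-plate median log2 colony size at 74 h.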

B1: SDC25 (protein, UniProt P0CF34 1-1048, looked up)
Putative truncated guanine …: MPITSSPDLFYLNDCDVVYWYDLTRLVCHYVNLTERDLLANEREKFLTSLDLLTAQITYVYMLFRNLRLVEDSFKKTLKKLIYTLSRFSINANIWFHSTLFEEREAIASQKDPERRSPLLQSILGTFQKFHFLLRLLHFLSNPNELTILPQLTPRFFKDSFNTISWNNPFLRKRLNQHMSHDLPRQMIKAVAGASGIVAENIDEIPASKQGTSCSSETSHHSPSAPFQRRRRGTIFSNVSGSSDESDTIWSKRKKPYPLNEETLSLVRARKKQLDGKLKQMIKSANEYLSNTANFSKMLNFEMNFKTYEEVSGTIPIIDILENLDLTIFLNLRELGDENRVFDEDVAIDDEDEEFLKHSLSSLSYILSDYFNMKQYFHDVVVKFIIVAQHLTLEDPFVFSPMQNDLPTGYYEPMKPSSLNLDNAKDKKNGSQNTDIQEEEDEYEPDPDSLILFHNLINQDSDFNDLKFFNLAHVFKKSCDDYFDVLKLAIEFVNQLILERENLLNYAARMMKNNITELLLRGEEGYGSYDGGETAEKSDTNAVYADSDTKDNDEWRDSQVKLPRYLQREYDSELIWGSNNRIKGGSKHALISYLTDNEKKDLFFDITFLITFRSIFTTTEFLSYLISQYNLDPPEDLCFEEYNEWVTKKLIPVKCRVVEIMTTFFKQYWFLGYDEPDLATLNLDYFAQVAIKENITGSVELLKEVNQKFKHGNIQEATAPMKTLDQQICQDHYSGTLYSTTESILAVDPVLFATQLTILEHEIYCEITIFDCLQKIWKNKYTKSYGASPGLNEFISFANKLTNFISYSVVKEADKSKRAKLLSHFIFIAEYCRKFNNFSSMTAIISALYSSPIYRLEKTWQAVIPQTRDLLQSLNKLMDPKKNFINYRNELKSLHSAPCVPFFGVYLSDLTFTDSGNPDYLVLEHGLKGVHDEKKYINFNKRSRLVDILQEIIYFKKTHYDFTKDRTVIECISNSLENIPHIEKQYQLSLIIEPKPRKKVVPNSNSNNKSQEKSRDDQTDEGKTSTKKDRFPKFQLHKTKKKAPKVSK
growth of ABP1 SH3-swapped strains in stress condition (Bathophenanthroline.0.1uM): 10.8364 | growth of ABP1 SH3-swapped strains in stress condition (Bathophenanthroline.10uM): 10.6904 | growth of ABP1 SH3-swapped strains in stress condition (Bathophenanthroline.1uM): 10.7994 | growth of ABP1 SH3-swapped strains in stress condition (CaCl2.100mM): 10.8248 | growth of ABP1 SH3-swapped strains in stress condition (CaCl2.250mM): 10.7599 | growth of ABP1 SH3-swapped strains in stress condition (CaCl2.500mM): 10.2626 | growth of ABP1 SH3-swapped strains in stress condition (Caffein.10mM): 10.0769 | growth of ABP1 SH3-swapped strains in stress condition (Caffein.2mM): 11.0485 | growth of ABP1 SH3-swapped strains in stress condition (CdCl2.100uM): 9.5 | growth of ABP1 SH3-swapped strains in stress condition (CdCl2.10uM): 10.8639 | growth of ABP1 SH3-swapped strains in stress condition (CdCl2.50uM): 9.958 | growth of ABP1 SH3-swapped strains in stress condition (CuSO4.1mM): 10.5113 | growth of ABP1 SH3-swapped strains in stress condition (CuSO4.5mM): 8.27 | growth of ABP1 SH3-swapped strains in stress condition (Cycloheximide.0.05.uM): 11.0819 | growth of ABP1 SH3-swapped strains in stress condition (Cycloheximide.0.2.uM): 10.7047 | growth of ABP1 SH3-swapped strains in stress condition (Cycloheximide.0.5.uM): 10.178 | growth of ABP1 SH3-swapped strains in stress condition (DMSO.2.): 11.0639 | growth of ABP1 SH3-swapped strains in stress condition (DMSO.6.): 9.8939 | growth of ABP1 SH3-swapped strains in stress condition (DMSO.8.): 9.304 | growth of ABP1 SH3-swapped strains in stress condition (Ethanol.2.): 10.7995 | growth of ABP1 SH3-swapped strains in stress condition (Ethanol.6.): 10.2862 | growth of ABP1 SH3-swapped strains in stress condition (Ethanol.8.): 10.1201 | growth of ABP1 SH3-swapped strains in stress condition (Galactose.2.): 10.8278 | growth of ABP1 SH3-swapped strains in stress condition (Glycerol.2.): 9.649 | growth of ABP1 SH3-swapped strains in stress condition (Hydroxyurea.25mM): 10.7663 | growth of ABP1 SH3-swapped strains in stress condition (Hygromycin.190uM): 10.9932 | growth of ABP1 SH3-swapped strains in stress condition (Hygromycin.19uM): 11.0621 | growth of ABP1 SH3-swapped strains in stress condition (Hygromycin.95uM): 11.0036 | growth of ABP1 SH3-swapped strains in stress condition (MMS.0.004.): 10.9622 | growth of ABP1 SH3-swapped strains in stress condition (MMS.0.02.): 10.7008 | growth of ABP1 SH3-swapped strains in stress condition (MMS.0.04.): 9.99 | growth of ABP1 SH3-swapped strains in stress condition (Menadione.100uM): 10.5981 | growth of ABP1 SH3-swapped strains in stress condition (Menadione.200uM): 10.4339 | growth of ABP1 SH3-swapped strains in stress condition (Menadione.50uM): 10.8229 | growth of ABP1 SH3-swapped strains in stress condition (NaCl.0.25M): 10.7913 | growth of ABP1 SH3-swapped strains in stress condition (NaCl.1M): 9.689 | growth of ABP1 SH3-swapped strains in stress condition (Nitroquinoline.10uM): 10.6447 | growth of ABP1 SH3-swapped strains in stress condition (Nitroquinoline.50uM): 10.5332 | growth of ABP1 SH3-swapped strains in stress condition (Nystatin.0.01uM): 11.0104 | growth of ABP1 SH3-swapped strains in stress condition (Nystatin.0.1uM): 10.9861 | growth of ABP1 SH3-swapped strains in stress condition (Raffinose.2.): 11.0244 | growth of ABP1 SH3-swapped strains in stress condition (Rapamycin.10nM): 9.868 | growth of ABP1 SH3-swapped strains in stress condition (Rapamycin.50nM): 9.322 | growth of ABP1 SH3-swapped strains in stress condition (SC.pH3): 10.4118 | growth of ABP1 SH3-swapped strains in stress condition (SC.pH6): 11.0555 | growth of ABP1 SH3-swapped strains in stress condition (SDS.0.01.): 10.9877 | growth of ABP1 SH3-swapped strains in stress condition (SDS.0.02.): 11.0022 | growth of ABP1 SH3-swapped strains in stress condition (SDS.0.05.): 10.9318 | growth of ABP1 SH3-swapped strains in stress condition (Sorbitol.10mM): 10.9817 | growth of ABP1 SH3-swapped strains in stress condition (Sorbitol.1mM): 11.0284 | growth of ABP1 SH3-swapped strains in stress condition (Sorbitol.5mM): 10.9056

B2: PIN3 (protein, UniProt Q06449 2-215, looked up)
[PSI+] inducibility protein 3: SASLINRSLTNIRTELDFLKGSNVISNDVYDQINKSLPAKWDPANAPRNASPASLEYVEALYQFDPQQDGDLGLKPGDKVQLLEKLSPEWYKGSCNGRTGIFPANYVKPAFSGSNGPSNLPPPPQYKAQELQQIPTQNSAASSYQQQPFPPPSTNYYQQPQQQPQQAPPPQQQQQQQQHQSSHSHLKSFGSKLGNAAIFGAGASIGSDIVNNIF
growth of ABP1 SH3-swapped strains in stress condition (Bathophenanthroline.0.1uM): 10.8166 | growth of ABP1 SH3-swapped strains in stress condition (Bathophenanthroline.10uM): 10.6603 | growth of ABP1 SH3-swapped strains in stress condition (Bathophenanthroline.1uM): 10.7601 | growth of ABP1 SH3-swapped strains in stress condition (CaCl2.100mM): 10.8086 | growth of ABP1 SH3-swapped strains in stress condition (CaCl2.250mM): 10.7002 | growth of ABP1 SH3-swapped strains in stress condition (CaCl2.500mM): 10.193 | growth of ABP1 SH3-swapped strains in stress condition (Caffein.10mM): 10.1104 | growth of ABP1 SH3-swapped strains in stress condition (Caffein.2mM): 10.9501 | growth of ABP1 SH3-swapped strains in stress condition (CdCl2.100uM): 9.413 | growth of ABP1 SH3-swapped strains in stress condition (CdCl2.10uM): 10.8515 | growth of ABP1 SH3-swapped strains in stress condition (CdCl2.50uM): 9.821 | growth of ABP1 SH3-swapped strains in stress condition (CuSO4.1mM): 10.439 | growth of ABP1 SH3-swapped strains in stress condition (CuSO4.5mM): 7.85 | growth of ABP1 SH3-swapped strains in stress condition (Cycloheximide.0.05.uM): 11.0946 | growth of ABP1 SH3-swapped strains in stress condition (Cycloheximide.0.2.uM): 10.6691 | growth of ABP1 SH3-swapped strains in stress condition (Cycloheximide.0.5.uM): 10.0558 | growth of ABP1 SH3-swapped strains in stress condition (DMSO.2.): 10.999 | growth of ABP1 SH3-swapped strains in stress condition (DMSO.6.): 9.863 | growth of ABP1 SH3-swapped strains in stress condition (DMSO.8.): 9.083 | growth of ABP1 SH3-swapped strains in stress condition (Ethanol.2.): 10.7656 | growth of ABP1 SH3-swapped strains in stress condition (Ethanol.6.): 10.3279 | growth of ABP1 SH3-swapped strains in stress condition (Ethanol.8.): 10.22 | growth of ABP1 SH3-swapped strains in stress condition (Galactose.2.): 10.8019 | growth of ABP1 SH3-swapped strains in stress condition (Glycerol.2.): 9.823 | growth of ABP1 SH3-swapped strains in stress condition (Hydroxyurea.25mM): 10.7882 | growth of ABP1 SH3-swapped strains in stress condition (Hygromycin.190uM): 10.9875 | growth of ABP1 SH3-swapped strains in stress condition (Hygromycin.19uM): 10.9831 | growth of ABP1 SH3-swapped strains in stress condition (Hygromycin.95uM): 10.9742 | growth of ABP1 SH3-swapped strains in stress condition (MMS.0.004.): 10.989 | growth of ABP1 SH3-swapped strains in stress condition (MMS.0.02.): 10.7926 | growth of ABP1 SH3-swapped strains in stress condition (MMS.0.04.): 10.0504 | growth of ABP1 SH3-swapped strains in stress condition (Menadione.100uM): 10.5651 | growth of ABP1 SH3-swapped strains in stress condition (Menadione.200uM): 10.4599 | growth of ABP1 SH3-swapped strains in stress condition (Menadione.50uM): 10.8547 | growth of ABP1 SH3-swapped strains in stress condition (NaCl.0.25M): 10.7663 | growth of ABP1 SH3-swapped strains in stress condition (NaCl.1M): 9.587 | growth of ABP1 SH3-swapped strains in stress condition (Nitroquinoline.10uM): 10.765 | growth of ABP1 SH3-swapped strains in stress condition (Nitroquinoline.50uM): 10.634 | growth of ABP1 SH3-swapped strains in stress condition (Nystatin.0.01uM): 10.9089 | growth of ABP1 SH3-swapped strains in stress condition (Nystatin.0.1uM): 10.9679 | growth of ABP1 SH3-swapped strains in stress condition (Raffinose.2.): 10.9939 | growth of ABP1 SH3-swapped strains in stress condition (Rapamycin.10nM): 9.886 | growth of ABP1 SH3-swapped strains in stress condition (Rapamycin.50nM): 9.402 | growth of ABP1 SH3-swapped strains in stress condition (SC.pH3): 10.4061 | growth of ABP1 SH3-swapped strains in stress condition (SC.pH6): 11.0349 | growth of ABP1 SH3-swapped strains in stress condition (SDS.0.01.): 10.9539 | growth of ABP1 SH3-swapped strains in stress condition (SDS.0.02.): 10.9685 | growth of ABP1 SH3-swapped strains in stress condition (SDS.0.05.): 10.8165 | growth of ABP1 SH3-swapped strains in stress condition (Sorbitol.10mM): 10.9792 | growth of ABP1 SH3-swapped strains in stress condition (Sorbitol.1mM): 10.9728 | growth of ABP1 SH3-swapped strains in stress condition (Sorbitol.5mM): 10.9245
